This note sets out measurements from paper PMC3528742.

For assay [1], the target named is human c-NADP-ME H51A/D139A (human) (UniProt P48163). Nature of the assay: AUC; sedimentation velocity, 0.3 mg/ml protein, 30 mM Tris-acetate pH 7.4, without urea, 20°C, 42,000 rpm, SEDFIT continuous size distribution.
Assay [2] has as its target human c-NADP-ME H142A/D568A (human) (UniProt P48163). Described as above.
Assay [3] has as its target human c-NADP-ME H142A (human) (UniProt P48163). The description is as above.
Assay [4] concerns the target human c-NADP-ME W572A (human) (UniProt P48163). The description is as above.
Assay [5] addresses human c-NADP-ME H51A/D90A (human) (UniProt P48163). The assay is described as above.
Assay [6] addresses T1, human cytosolic NADP+-dependent malic enzyme, wild type (human), P48163.
T1 chain: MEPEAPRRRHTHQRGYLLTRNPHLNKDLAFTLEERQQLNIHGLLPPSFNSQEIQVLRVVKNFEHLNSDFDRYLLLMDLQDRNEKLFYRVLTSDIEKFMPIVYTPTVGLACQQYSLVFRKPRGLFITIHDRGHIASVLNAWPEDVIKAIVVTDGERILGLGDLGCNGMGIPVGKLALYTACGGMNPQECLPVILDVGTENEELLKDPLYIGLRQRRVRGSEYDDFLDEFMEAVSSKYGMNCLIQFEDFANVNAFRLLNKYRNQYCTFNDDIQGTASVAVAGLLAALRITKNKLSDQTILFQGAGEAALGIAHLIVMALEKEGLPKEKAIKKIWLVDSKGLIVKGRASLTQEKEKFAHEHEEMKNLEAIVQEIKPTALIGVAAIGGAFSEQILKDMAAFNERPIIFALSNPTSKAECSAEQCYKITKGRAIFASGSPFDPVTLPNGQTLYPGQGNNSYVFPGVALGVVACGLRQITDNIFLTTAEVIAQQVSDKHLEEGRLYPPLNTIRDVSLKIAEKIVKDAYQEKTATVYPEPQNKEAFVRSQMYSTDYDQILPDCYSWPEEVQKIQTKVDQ
The assay is described as follows: AUC; sedimentation velocity, 0.3 mg/ml protein, preincubated with 2 M urea in 30 mM Tris-acetate pH 7.4 at 25°C for 16 h, run at 20°C. As to conditions: remark: other sources report otherwise.

Usually stoichiometry N stands for the number of molecules, sites or subunits per partner or assembly.

For “human c-NADP-ME H51A/D139A (from UniProt P48163 13-564) (enzyme)”, the stoichiometry N in assay [1] turned out to be 2.
With “human c-NADP-ME H142A/D568A (from UniProt P48163 13-564) (enzyme)”, the stoichiometry N in assay [2] came to 2.
Take “human c-NADP-ME H142A (from UniProt P48163 13-564) (enzyme)”: the stoichiometry N in assay [3] is 2.
For “human c-NADP-ME W572A (from UniProt P48163 13-564) (enzyme)”, the stoichiometry N in assay [4] is 2.
With “human c-NADP-ME H51A/D90A (from UniProt P48163 13-564) (enzyme)”, the stoichiometry N in assay [5] was found to be 2.

B1: human cytosolic NADP+-dependent malic enzyme, wild type, P48163 1-572 (enzyme)
chain: MEPEAPRRRHTHQRGYLLTRNPHLNKDLAFTLEERQQLNIHGLLPPSFNSQEIQVLRVVKNFEHLNSDFDRYLLLMDLQDRNEKLFYRVLTSDIEKFMPIVYTPTVGLACQQYSLVFRKPRGLFITIHDRGHIASVLNAWPEDVIKAIVVTDGERILGLGDLGCNGMGIPVGKLALYTACGGMNPQECLPVILDVGTENEELLKDPLYIGLRQRRVRGSEYDDFLDEFMEAVSSKYGMNCLIQFEDFANVNAFRLLNKYRNQYCTFNDDIQGTASVAVAGLLAALRITKNKLSDQTILFQGAGEAALGIAHLIVMALEKEGLPKEKAIKKIWLVDSKGLIVKGRASLTQEKEKFAHEHEEMKNLEAIVQEIKPTALIGVAAIGGAFSEQILKDMAAFNERPIIFALSNPTSKAECSAEQCYKITKGRAIFASGSPFDPVTLPNGQTLYPGQGNNSYVFPGVALGVVACGLRQITDNIFLTTAEVIAQQVSDKHLEEGRLYPPLNTIRDVSLKIAEKIVKDAYQEKTATVYPEPQNKEAFVRSQMYSTDYDQILPDCYSWPEEVQKIQTKVDQ
For B1, in assay [6], the stoichiometry N was 2.
